For one data set, the target named is U2AF65 E425A (UniProt P26369 1-475, E425A). The data set is described as follows: EMSA. A general note: In EMSA bound probe runs differently from free probe, usually more slowly.
A further data set has as its target U2AF65 WT (UniProt P26369 1-475). The data set is described as follows: EMSA.

Chain of U2AF65 WT (P26369 whole entry, one chain of several): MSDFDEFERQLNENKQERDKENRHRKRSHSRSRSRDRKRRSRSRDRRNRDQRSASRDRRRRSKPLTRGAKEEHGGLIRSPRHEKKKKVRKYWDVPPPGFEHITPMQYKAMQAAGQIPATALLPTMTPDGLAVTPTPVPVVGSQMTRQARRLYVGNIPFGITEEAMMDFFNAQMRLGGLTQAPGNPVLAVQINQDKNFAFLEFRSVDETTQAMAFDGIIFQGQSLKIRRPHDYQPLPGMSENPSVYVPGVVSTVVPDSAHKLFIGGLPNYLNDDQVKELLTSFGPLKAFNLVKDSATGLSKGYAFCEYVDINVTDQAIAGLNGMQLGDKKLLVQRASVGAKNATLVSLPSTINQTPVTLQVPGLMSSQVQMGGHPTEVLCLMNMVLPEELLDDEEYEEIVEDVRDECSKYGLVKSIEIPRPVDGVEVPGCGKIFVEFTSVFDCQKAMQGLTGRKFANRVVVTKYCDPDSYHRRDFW
Chain of U2AF65 E425A (P26369 whole entry E425A, one chain of several): as the sequence (P26369 whole entry, one chain of several) above, with E425A counted along it

B1: U12 Scn8a 3' splice site (ssRNA)
RNA: CUUAACUCCUCUCUACAGU
Regarding B1, the binding result with U2AF65 E425A and in the data set with U2AF65 WT was “no binding” throughout.

B2: U2 LPL 3' splice site (ssRNA)
RNA: CCUGCUUUUUUCCCUUUUAAGGCCUCGAUCCA
In the case of B2, the binding result in the data set with U2AF65 E425A and with U2AF65 WT was “binds” throughout.

These data come from PMC9186393.
